B3: PP2A regulatory subunit B55α (other, UniProt P63151 2-447, looked up)
chain: AGAGGGNDIQWCFSQVKGAVDDDVAEADIISTVEFNHSGELLATGDKGGRVVIFQQEQENKIQSHSRGEYNVYSTFQSHEPEFDYLKSLEIEEKINKIRWLPQKNAAQFLLSTNDKTIKLWKISERDKRPEGYNLKEEDGRYRDPTTVTTLRVPVFRPMDLMVEASPRRIFANAHTYHINSISINSDYETYLSADDLRINLWHLEITDRSFNIVDIKPANMEELTEVITAAEFHPNSCNTFVYSSSKGTIRLCDMRASALCDRHSKLFEEPEDPSNRSFFSEIISSISDVKFSHSGRYMMTRDYLSVKIWDLNMENRPVETYQVHEYLRSKLCSLYENDCIFDKFECCWNGSDSVVMTGSYNNFFRMFDRNTKRDITLEASRENNKPRTVLKPRKVCASGKRKKDEISVDSLDFNKKILHTAWHPKENIIAVATTNNLYIFQDKVN
notes: Endogenous protein found in anti-FLAG immune complexes by immunoblot
B6: cancer-derived FLAG-tagged PP2A Aβ mutant G8R (other, UniProt P30154 1-601, looked up, not shown: small tags and cut ends)
chain: MAGASELRTGPGAAGGDGDDSLYPIAVLIDELRNEDVQLRLNSIKKLSTIALALGVERTRSELLPFLTDTIYDEDEVLLALAEQLGNFTGLVGGPDFAHCLLPPLENLATVEETVVRDKAVESLRQISQEHTPVALEAYFVPLVKRLASGDWFTSRTSACGLFSVCYPRASNAVKAEIRQQFRSLCSDDTPMVRRAAASKLGEFAKVLELDSVKSEIVPLFTSLASDEQDSVRLLAVEACVSIAQLLSQDDLETLVMPTLRQAAEDKSWRVRYMVADRFSELQKAMGPKITLNDLIPAFQNLLKDCEAEVRAAAAHKVKELGENLPIEDRETIIMNQILPYIKELVSDTNQHVKSALASVIMGLSTILGKENTIEHLLPLFLAQLKDECPDVRLNIISNLDCVNEVIGIRQLSQSLLPAIVELAEDAKWRVRLAIIEYMPLLAGQLGVEFFDEKLNSLCMAWLVDHVYAIREAATNNLMKLVQKFGTEWAQNTIVPKVLVMANDPNYLHRMTTLFCINALSEACGQEITTKQMLPIVLKMAGDQVANVRFNVAKSLQKIGPILDTNALQGEVKPVLQKLGQDEDMDVKYFAQEAISVLALA
notes: Overexpressed in HEK TER cells; the shRNA-resistant form carries silent substitutions only; also called G8R Aβ mutant

Experiments:
[1] = molecular target: T1, wild type (WT) FLAG epitope-tagged version of PP2A Aβ (UniProt P30154 1-601); assay: anti-FLAG agarose co-IP from 293T cells, immunoblot
T1 construct: also called wtPP2A Aβ; FLAG-tagged Aβ

[2] = molecular target: B6; assay: anti-FLAG (M2) co-IP from HEK TER cells, RalA immunoblot
[3] = molecular target: T2, cancer-derived FLAG-tagged PP2A Aβ mutant V448A (UniProt P30154 1-601); assay: as above
T2 construct: Overexpressed in HEK TER cells

[4] = molecular target: T1, wild type (WT) FLAG epitope-tagged …; assay: anti-FLAG (M2) co-IP from 293T cells, RalA immunoblot
[5] = molecular target: T3, FLAG-epitope tagged PP2A Aα (UniProt P30153 1-589); assay: as above
T3 construct: also called wtPP2A Aα; FLAG-tagged Aα

[6] = molecular target: T1, wild type (WT) FLAG epitope-tagged …; assay: anti-FLAG co-IP from HEK TER cells, immunoblot
[7] = molecular target: T4, cancer-derived FLAG-tagged PP2A Aβ mutant ΔE344-E388 (Homo sapiens (Human), UniProt P30154 2-601); assay: anti-FLAG co-IP from HEK TER cells, immunoblot, densitometry
T4 construct: Deletion of exon 9, in-frame deletion of 45 amino acids; Overexpressed in HEK TER cells; also called D344-388

[8] = molecular target: T5, cancer-derived FLAG-tagged PP2A Aβ mutant L101P/V448A (UniProt P30154 1-601); assay: as above
T5 construct: Overexpressed in HEK TER cells

[9] = molecular target: T1, wild type (WT) FLAG epitope-tagged …; assay: reciprocal co-IP (anti-HA, anti-FLAG agarose) from 293T cells, immunoblot
[10] = molecular target: T6, PP2A catalytic subunit Cα (human (endogenous in human HEK TER or …, UniProt P67775 1-309)); assay: anti-FLAG co-IP from HEK TER cells, immunoblot, densitometry; +++ >90%, ++ 50-90%, + <50%
T6 construct: Endogenous protein found in anti-FLAG immune complexes by immunoblot or mass spectroscopy; also called PP2A catalytic Cα

[11] = molecular target: T7, PP2A regulatory subunit B56γ (human (endogenous in human HEK TER …, UniProt Q13362 1-524)); assay: as above
[12] = molecular target: T8, PP2A regulatory subunit B56ε (human (endogenous in human HEK TER …, UniProt Q16537 2-467, limits assumed)); assay: as above
T8 construct: Endogenous protein found in anti-FLAG immune complexes by immunoblot

[13] = molecular target: B3; assay: as above
[14] = molecular target: T9, PP2A regulatory subunit B56α (human (endogenous in human HEK TER …, UniProt Q15172 2-486, limits assumed)); assay: as above
T9 construct: Endogenous protein found in anti-FLAG immune complexes by immunoblot

[15] = molecular target: T7, PP2A regulatory subunit B56γ; assay: anti-FLAG co-IP from HEK TER cells, immunoblot, densitometry
[16] = molecular target: T1, wild type (WT) FLAG epitope-tagged …; assay: GST pull-down with glutathione-agarose from 293T lysates, immunoblot

T6 sequence (P67775 whole entry): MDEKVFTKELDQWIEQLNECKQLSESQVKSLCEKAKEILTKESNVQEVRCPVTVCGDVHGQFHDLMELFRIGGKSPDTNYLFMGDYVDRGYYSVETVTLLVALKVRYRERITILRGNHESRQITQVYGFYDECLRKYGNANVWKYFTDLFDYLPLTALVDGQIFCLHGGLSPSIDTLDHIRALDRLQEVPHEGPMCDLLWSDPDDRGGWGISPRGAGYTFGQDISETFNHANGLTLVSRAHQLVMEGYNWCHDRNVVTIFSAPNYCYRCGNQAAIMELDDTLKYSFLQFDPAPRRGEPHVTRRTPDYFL
T8 sequence (Q16537 2-467 limits assumed): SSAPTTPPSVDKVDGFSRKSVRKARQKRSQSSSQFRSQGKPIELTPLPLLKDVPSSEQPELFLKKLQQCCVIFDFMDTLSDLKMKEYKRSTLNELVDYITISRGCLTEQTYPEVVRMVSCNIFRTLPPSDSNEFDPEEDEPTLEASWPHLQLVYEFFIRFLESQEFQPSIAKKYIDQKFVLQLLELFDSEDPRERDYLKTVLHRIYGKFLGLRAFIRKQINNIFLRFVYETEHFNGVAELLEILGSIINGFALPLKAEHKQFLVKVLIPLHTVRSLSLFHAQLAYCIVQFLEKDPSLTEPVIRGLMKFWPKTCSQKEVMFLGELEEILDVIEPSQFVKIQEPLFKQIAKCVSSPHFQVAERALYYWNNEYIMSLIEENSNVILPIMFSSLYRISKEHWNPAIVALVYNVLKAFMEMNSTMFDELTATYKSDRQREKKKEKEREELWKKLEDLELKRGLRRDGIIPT
T9 sequence (Q15172 2-486 limits assumed): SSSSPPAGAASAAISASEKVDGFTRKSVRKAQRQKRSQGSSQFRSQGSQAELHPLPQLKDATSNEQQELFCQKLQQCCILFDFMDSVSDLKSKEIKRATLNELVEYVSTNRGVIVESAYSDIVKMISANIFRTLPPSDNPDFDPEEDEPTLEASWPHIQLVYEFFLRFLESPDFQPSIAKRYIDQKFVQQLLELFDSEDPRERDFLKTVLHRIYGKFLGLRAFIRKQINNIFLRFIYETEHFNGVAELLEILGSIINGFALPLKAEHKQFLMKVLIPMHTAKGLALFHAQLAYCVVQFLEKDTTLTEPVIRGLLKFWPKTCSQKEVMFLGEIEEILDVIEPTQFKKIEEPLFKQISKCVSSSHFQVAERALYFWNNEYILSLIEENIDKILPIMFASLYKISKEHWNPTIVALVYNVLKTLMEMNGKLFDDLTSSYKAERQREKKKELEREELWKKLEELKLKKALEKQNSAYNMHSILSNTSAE
T7 sequence (Q13362 whole entry): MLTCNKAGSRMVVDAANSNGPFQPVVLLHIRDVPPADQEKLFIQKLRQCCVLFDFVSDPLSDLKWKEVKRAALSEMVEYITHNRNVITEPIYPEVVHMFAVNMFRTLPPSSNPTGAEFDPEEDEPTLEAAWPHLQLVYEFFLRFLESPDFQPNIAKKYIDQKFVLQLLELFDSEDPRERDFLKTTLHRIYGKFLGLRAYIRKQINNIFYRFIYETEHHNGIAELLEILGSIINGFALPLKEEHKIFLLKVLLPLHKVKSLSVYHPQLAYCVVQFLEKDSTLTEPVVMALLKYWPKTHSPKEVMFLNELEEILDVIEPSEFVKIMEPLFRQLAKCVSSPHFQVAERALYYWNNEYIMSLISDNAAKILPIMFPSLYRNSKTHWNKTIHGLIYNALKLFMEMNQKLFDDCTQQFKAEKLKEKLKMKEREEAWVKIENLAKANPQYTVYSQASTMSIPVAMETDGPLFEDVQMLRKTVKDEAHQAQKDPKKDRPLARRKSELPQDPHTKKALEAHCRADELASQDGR
T2 sequence (P30154 whole entry V448A): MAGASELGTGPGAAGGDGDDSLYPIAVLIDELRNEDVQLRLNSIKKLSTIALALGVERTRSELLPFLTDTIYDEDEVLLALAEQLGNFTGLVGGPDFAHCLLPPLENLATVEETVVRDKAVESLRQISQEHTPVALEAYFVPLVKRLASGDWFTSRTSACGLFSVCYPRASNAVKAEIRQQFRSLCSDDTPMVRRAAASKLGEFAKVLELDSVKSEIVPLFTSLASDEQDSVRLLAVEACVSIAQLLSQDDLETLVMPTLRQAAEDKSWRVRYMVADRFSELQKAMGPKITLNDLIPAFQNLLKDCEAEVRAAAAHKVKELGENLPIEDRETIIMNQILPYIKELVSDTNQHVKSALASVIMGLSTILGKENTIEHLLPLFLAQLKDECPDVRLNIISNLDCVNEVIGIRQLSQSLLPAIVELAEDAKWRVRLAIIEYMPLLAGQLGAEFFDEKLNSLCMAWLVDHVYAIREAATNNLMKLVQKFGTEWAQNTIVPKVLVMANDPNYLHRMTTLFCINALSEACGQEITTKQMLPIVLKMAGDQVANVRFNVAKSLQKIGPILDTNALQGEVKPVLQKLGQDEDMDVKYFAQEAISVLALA
T1 sequence (P30154 whole entry): as the sequence (P30154 whole entry V448A) above, with A448V counted along it
T3 sequence (P30153 whole entry): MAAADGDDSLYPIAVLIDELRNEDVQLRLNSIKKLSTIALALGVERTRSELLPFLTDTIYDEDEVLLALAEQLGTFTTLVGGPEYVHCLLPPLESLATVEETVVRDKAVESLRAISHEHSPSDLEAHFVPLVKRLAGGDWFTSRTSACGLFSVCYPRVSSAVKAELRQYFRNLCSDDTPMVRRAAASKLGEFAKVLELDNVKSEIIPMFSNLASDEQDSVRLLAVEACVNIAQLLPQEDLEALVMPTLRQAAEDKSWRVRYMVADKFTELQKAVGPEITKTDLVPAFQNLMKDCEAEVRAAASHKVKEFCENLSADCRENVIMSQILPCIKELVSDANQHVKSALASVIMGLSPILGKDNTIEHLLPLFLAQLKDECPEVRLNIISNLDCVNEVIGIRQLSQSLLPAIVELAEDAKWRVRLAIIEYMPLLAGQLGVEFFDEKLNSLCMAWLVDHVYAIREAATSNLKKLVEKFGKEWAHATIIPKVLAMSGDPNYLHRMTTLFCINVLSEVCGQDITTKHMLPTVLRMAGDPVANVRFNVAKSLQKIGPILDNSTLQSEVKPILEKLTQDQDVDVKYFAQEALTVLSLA

B1: HA-tagged RalA S11A mutant (enzyme, not shown: small tags and cut ends)
chain: MAANKPKGQNALALHKVIMVGSGGVGKSALTLQFMYDEFVEDYEPTKADSYRKKVVLDGEEVQIDILDTAGQEDYAAIRDNYFRSGEGFLCVFSITEMESFAATADFREQILRVKEDENVPFLLVGNKSDLEDKRQVSVEEAKNRAEQWNVNYVETSAKTRANVDKVFFDLMREIRARKMEDSKEKNGKKKRKSLAKRIRERC
notes: also called S11A RalA mutant
Question: Does B1 bind [1]?
Answer: Result: binds

B2: endogenous RalA (enzyme)
chain: MAANKPKGQNSLALHKVIMVGSGGVGKSALTLQFMYDEFVEDYEPTKADSYRKKVVLDGEEVQIDILDTAGQEDYAAIRDNYFRSGEGFLCVFSITEMESFAATADFREQILRVKEDENVPFLLVGNKSDLEDKRQVSVEEAKNRAEQWNVNYVETSAKTRANVDKVFFDLMREIRARKMEDSKEKNGKKKRKSLAKRIRERC
notes: Endogenous protein in cell lysates; also called small GTPase RalA
Question: Does B2 bind [2]?
Answer: Result: no binding

Question: Does B2 bind [3]?
Answer: Result: no binding

Question: Does B2 bind [4]?
Answer: Result: binds

Question: Does B2 bind [5]?
Answer: Result: no binding

Question: Does B3 bind [6]?
Answer: Result: binds

Question: Does B3 bind [7]?
Answer: Result: no binding

Question: Does B3 bind [8]?
Answer: Result: no binding

B4: HA-tagged wild-type RalA (enzyme, not shown: small tags and cut ends)
chain: MAANKPKGQNSLALHKVIMVGSGGVGKSALTLQFMYDEFVEDYEPTKADSYRKKVVLDGEEVQIDILDTAGQEDYAAIRDNYFRSGEGFLCVFSITEMESFAATADFREQILRVKEDENVPFLLVGNKSDLEDKRQVSVEEAKNRAEQWNVNYVETSAKTRANVDKVFFDLMREIRARKMEDSKEKNGKKKRKSLAKRIRERC
notes: phosphorylation state not separated; also called HA-tagged RalA; HA-RalA
Question: Does B4 bind [9]?
Answer: Result: binds

B5: cancer-derived FLAG-tagged PP2A Aβ mutant P65S (other, UniProt P30154 1-601, looked up, not shown: small tags and cut ends)
chain: MAGASELGTGPGAAGGDGDDSLYPIAVLIDELRNEDVQLRLNSIKKLSTIALALGVERTRSELLSFLTDTIYDEDEVLLALAEQLGNFTGLVGGPDFAHCLLPPLENLATVEETVVRDKAVESLRQISQEHTPVALEAYFVPLVKRLASGDWFTSRTSACGLFSVCYPRASNAVKAEIRQQFRSLCSDDTPMVRRAAASKLGEFAKVLELDSVKSEIVPLFTSLASDEQDSVRLLAVEACVSIAQLLSQDDLETLVMPTLRQAAEDKSWRVRYMVADRFSELQKAMGPKITLNDLIPAFQNLLKDCEAEVRAAAAHKVKELGENLPIEDRETIIMNQILPYIKELVSDTNQHVKSALASVIMGLSTILGKENTIEHLLPLFLAQLKDECPDVRLNIISNLDCVNEVIGIRQLSQSLLPAIVELAEDAKWRVRLAIIEYMPLLAGQLGVEFFDEKLNSLCMAWLVDHVYAIREAATNNLMKLVQKFGTEWAQNTIVPKVLVMANDPNYLHRMTTLFCINALSEACGQEITTKQMLPIVLKMAGDQVANVRFNVAKSLQKIGPILDTNALQGEVKPVLQKLGQDEDMDVKYFAQEAISVLALA
notes: Overexpressed in HEK TER cells
Question: Which results are given for B5?
Answer: binding level (percent, co-immunoprecipitation densitometry) [10]: 50 to 90%; binding level (percent, co-immunoprecipitation densitometry) [11]: < 50%; binding level (percent, co-immunoprecipitation densitometry) [12]: > 90%; binding level (percent, co-immunoprecipitation densitometry) [13]: > 90%; binding level (percent, co-immunoprecipitation densitometry) [14]: < 50%

Question: Which “binding level (percent, co-immunoprecipitation densitometry)” value [10] does the source give for B6 here?
Answer: Its value is 50 to 90%.

Question: And the “binding level (percent, co-immunoprecipitation densitometry)” value [11]?
Answer: The value was under 50%.

Question: And the “binding level (percent, co-immunoprecipitation densitometry)” value [12]?
Answer: Its value is over 90%.

Question: What about the “binding level (percent, co-immunoprecipitation densitometry)” value [13] of the same binder?
Answer: The value was over 90%.

Question: And the “binding level (percent, co-immunoprecipitation densitometry)” value [14]?
Answer: Its value is over 90%.

B7: cancer-derived FLAG-tagged PP2A Aβ mutant V545A (other, UniProt P30154 1-601, looked up, not shown: small tags and cut ends)
chain: MAGASELGTGPGAAGGDGDDSLYPIAVLIDELRNEDVQLRLNSIKKLSTIALALGVERTRSELLPFLTDTIYDEDEVLLALAEQLGNFTGLVGGPDFAHCLLPPLENLATVEETVVRDKAVESLRQISQEHTPVALEAYFVPLVKRLASGDWFTSRTSACGLFSVCYPRASNAVKAEIRQQFRSLCSDDTPMVRRAAASKLGEFAKVLELDSVKSEIVPLFTSLASDEQDSVRLLAVEACVSIAQLLSQDDLETLVMPTLRQAAEDKSWRVRYMVADRFSELQKAMGPKITLNDLIPAFQNLLKDCEAEVRAAAAHKVKELGENLPIEDRETIIMNQILPYIKELVSDTNQHVKSALASVIMGLSTILGKENTIEHLLPLFLAQLKDECPDVRLNIISNLDCVNEVIGIRQLSQSLLPAIVELAEDAKWRVRLAIIEYMPLLAGQLGVEFFDEKLNSLCMAWLVDHVYAIREAATNNLMKLVQKFGTEWAQNTIVPKVLVMANDPNYLHRMTTLFCINALSEACGQEITTKQMLPIVLKMAGDQAANVRFNVAKSLQKIGPILDTNALQGEVKPVLQKLGQDEDMDVKYFAQEAISVLALA
notes: as for B5
Question: Does B7 bind [15]?
Answer: Result: no binding

Question: And the “binding level (percent, co-immunoprecipitation densitometry)” value [10]?
Answer: The value was under 50%.

Question: And the “binding level (percent, co-immunoprecipitation densitometry)” value [12]?
Answer: The value was under 50%.

Question: And the “binding level (percent, co-immunoprecipitation densitometry)” value [13]?
Answer: The value was over 90%.

Question: What about the “binding level (percent, co-immunoprecipitation densitometry)” value [14] of the same binder?
Answer: Its value is under 50%.

B8: GST-tagged SV40 small t antigen (ST) (other)
chain: MDKVLNREESLQLMDLLGLERSAWGNIPLMRKAYLKKCKEFHPDKGGDEEKMKKMNTLYKKMEDGVKYAHQPDFGGFWDATEVFASSLNPGVDAMYCKQWPECAKKMSANCICLLCLLRMKHENRKLYRKDPLVWVDCYCFDCFRMWFGLDLCEGTLLLWCDIIGQTTYRDLKL
notes: also called GST-tagged ST; SV40 ST; not shown: GST tag
Question: Does B8 bind [16]?
Answer: Result: no binding
